# Test results published in the supplement of paper PMC9112550, “Optimization of the antimicrobial peptide Bac7 by deep mutational scanning” (BMC Biology, 2022).
# System: Escherichia coli TOP10
# Assay: shrunken log2 fold change of peptide-encoding DNA abundance (4.5 h post-induction vs induction); higher = less antimicrobial activity (less host growth inhibition)
# Details: time post-induction: 4.5 h; library: site-saturation at positions 5, 18, 19, 20
# 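Further: peptides expressed intracellularly from a pBAD plasmid library in pooled LB shake-flask culture, induced with 0.3% L-arabinose, DNA abundance read by NGS, three biological replicates, DESeq2 with apeglm shrinkage.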
row,Sequence,shrunken log2 fold change
1,RRIRWRPPRLPRPRPRPNHKPRP,-0.37
2,RRIRPRPPRLPRPRPRPGWYPRP,0.075
3,RRIRFRPPRLPRPRPRPTKFPRP,-0.355
4,RRIRTRPPRLPRPRPRPWPVPRP,-0.105
5,RRIRVRPPRLPRPRPRPPTLPRP,0.252
6,RRIRTRPPRLPRPRPRPSTQPRP,-0.0187
7,RRIRRRPPRLPRPRPRPWFYPRP,-0.00712
8,RRIRNRPPRLPRPRPRPRAKPRP,0.0711
9,RRIRSRPPRLPRPRPRPFHPPRP,0.0938
10,RRIRCRPPRLPRPRPRPLSLPRP,-0.305
11,RRIRWRPPRLPRPRPRPLYPPRP,-0.208
12,RRIRMRPPRLPRPRPRPWNNPRP,-0.964
13,RRIRCRPPRLPRPRPRPAYDPRP,0.0664
14,RRIRNRPPRLPRPRPRPVGVPRP,-0.0443
15,RRIRPRPPRLPRPRPRPCNGPRP,-0.202
16,RRIRNRPPRLPRPRPRPSGWPRP,-0.137
17,RRIRERPPRLPRPRPRPQRSPRP,-0.106
18,RRIRTRPPRLPRPRPRPFTNPRP,-0.0559
19,RRIRGRPPRLPRPRPRPWPLPRP,0.797
20,RRIRKRPPRLPRPRPRPCIAPRP,-0.0581
21,RRIRLRPPRLPRPRPRPIMHPRP,0.0628
22,RRIRLRPPRLPRPRPRPKPVPRP,0.165
23,RRIRDRPPRLPRPRPRPWWLPRP,0.0758
24,RRIRMRPPRLPRPRPRPVNLPRP,-0.0198
25,RRIRQRPPRLPRPRPRPYKHPRP,-0.161

row,Sequence,shrunken log2 fold change
1,RRIRGRPPRLPRPRPRPSFAPRP,0.723
2,RRIRERPPRLPRPRPRPSWHPRP,-0.215
3,RRIRQRPPRLPRPRPRPHLRPRP,-0.0964
4,RRIRTRPPRLPRPRPRPYSKPRP,-0.565
5,RRIRKRPPRLPRPRPRPGVPPRP,0.364
6,RRIRDRPPRLPRPRPRPWYYPRP,0.0606
7,RRIRYRPPRLPRPRPRPVGSPRP,-0.277
8,RRIRLRPPRLPRPRPRPKYPPRP,0.0464
9,RRIRFRPPRLPRPRPRPCSPPRP,-0.674
10,RRIRCRPPRLPRPRPRPCFTPRP,-0.552
11,RRIRIRPPRLPRPRPRPPWDPRP,0.0808
12,RRIRNRPPRLPRPRPRPDLKPRP,0.0748
13,RRIRMRPPRLPRPRPRPYTAPRP,0.147
14,RRIRDRPPRLPRPRPRPIWPPRP,0.0998
15,RRIRARPPRLPRPRPRPIGLPRP,0.076
16,RRIRDRPPRLPRPRPRPSWEPRP,-0.00136
17,RRIRRRPPRLPRPRPRPILTPRP,0.447
18,RRIRKRPPRLPRPRPRPKNAPRP,0.216
19,RRIRHRPPRLPRPRPRPPSTPRP,-0.0909
20,RRIRCRPPRLPRPRPRPYWYPRP,-0.553
21,RRIRNRPPRLPRPRPRPMVRPRP,4.1
22,RRIRDRPPRLPRPRPRPCAIPRP,0.029
23,RRIRYRPPRLPRPRPRPWFEPRP,-0.2
24,RRIRRRPPRLPRPRPRPQWAPRP,0.0248
25,RRIRQRPPRLPRPRPRPGWSPRP,0.119

row,Sequence,shrunken log2 fold change
1,RRIRRRPPRLPRPRPRPAGMPRP,0.102
2,RRIRKRPPRLPRPRPRPAIMPRP,0.418
3,RRIRDRPPRLPRPRPRPCEQPRP,0.0856
4,RRIRWRPPRLPRPRPRPQTVPRP,-0.0322
5,RRIRMRPPRLPRPRPRPGKEPRP,0.137
6,RRIRLRPPRLPRPRPRPCIQPRP,-0.675
7,RRIRWRPPRLPRPRPRPIKCPRP,-0.0271
8,RRIRERPPRLPRPRPRPKGHPRP,0.092
9,RRIRSRPPRLPRPRPRPLCYPRP,-0.535
10,RRIRPRPPRLPRPRPRPRNVPRP,0.0758
11,RRIRSRPPRLPRPRPRPYFDPRP,-0.597
12,RRIRDRPPRLPRPRPRPELVPRP,0.00724
13,RRIRNRPPRLPRPRPRPKQDPRP,-0.0415
14,RRIRLRPPRLPRPRPRPGEFPRP,2.05
15,RRIRLRPPRLPRPRPRPCPRPRP,0.0559
16,RRIRPRPPRLPRPRPRPKGLPRP,0.062
17,RRIRARPPRLPRPRPRPQEAPRP,0.197
18,RRIRLRPPRLPRPRPRPKGEPRP,0.149
19,RRIRNRPPRLPRPRPRPNQDPRP,-0.251
20,RRIRNRPPRLPRPRPRPRKWPRP,0.416
21,RRIRIRPPRLPRPRPRPCNAPRP,-0.0751
22,RRIRNRPPRLPRPRPRPRQDPRP,0.0815
23,RRIRFRPPRLPRPRPRPALEPRP,0.0373
24,RRIRFRPPRLPRPRPRPVKMPRP,-0.0692
25,RRIRTRPPRLPRPRPRPVANPRP,0.133

row,Sequence,shrunken log2 fold change
1,RRIRVRPPRLPRPRPRPHEQPRP,-0.163
2,RRIRLRPPRLPRPRPRPCFQPRP,-0.512
3,RRIRVRPPRLPRPRPRPAYAPRP,-0.129
4,RRIRLRPPRLPRPRPRPMRHPRP,0.188
5,RRIRDRPPRLPRPRPRPRYMPRP,-0.233
6,RRIRKRPPRLPRPRPRPDSFPRP,-0.115
7,RRIRTRPPRLPRPRPRPHQMPRP,0.0521
8,RRIRMRPPRLPRPRPRPNAAPRP,2.83
9,RRIRKRPPRLPRPRPRPMADPRP,-0.000921
10,RRIRSRPPRLPRPRPRPHEVPRP,-0.0564
11,RRIRCRPPRLPRPRPRPWEKPRP,0.0651
12,RRIRPRPPRLPRPRPRPDCSPRP,0.152
13,RRIRWRPPRLPRPRPRPTQHPRP,0.333
14,RRIRDRPPRLPRPRPRPLPPPRP,0.306
15,RRIRNRPPRLPRPRPRPFFSPRP,-0.14
16,RRIRSRPPRLPRPRPRPEMSPRP,0.259
17,RRIRYRPPRLPRPRPRPNNAPRP,-1.1
18,RRIRGRPPRLPRPRPRPMCHPRP,0.874
19,RRIRPRPPRLPRPRPRPMAMPRP,-0.146
20,RRIRKRPPRLPRPRPRPTSQPRP,0.149
21,RRIRFRPPRLPRPRPRPWFWPRP,-0.285
22,RRIRIRPPRLPRPRPRPVTPPRP,-0.0315
23,RRIRYRPPRLPRPRPRPMIHPRP,-0.0658
24,RRIRERPPRLPRPRPRPYNFPRP,-0.254
25,RRIRSRPPRLPRPRPRPWDFPRP,-0.224

row,Sequence,shrunken log2 fold change
1,RRIRGRPPRLPRPRPRPQVSPRP,0.0928
2,RRIRYRPPRLPRPRPRPWLLPRP,-1.51
3,RRIRPRPPRLPRPRPRPFKPPRP,-0.387
4,RRIRCRPPRLPRPRPRPCQCPRP,-0.208
5,RRIRARPPRLPRPRPRPQRQPRP,0.24
6,RRIRSRPPRLPRPRPRPPNKPRP,-0.0165
7,RRIRPRPPRLPRPRPRPEDSPRP,0.159
8,RRIRKRPPRLPRPRPRPGKNPRP,-0.181
9,RRIRWRPPRLPRPRPRPVMKPRP,0.12
10,RRIRRRPPRLPRPRPRPHRSPRP,-0.00354
11,RRIRFRPPRLPRPRPRPIESPRP,-0.15
12,RRIRIRPPRLPRPRPRPQWFPRP,-0.0117
13,RRIRFRPPRLPRPRPRPWPIPRP,-0.0205
14,RRIRARPPRLPRPRPRPGSYPRP,0.14
15,RRIRDRPPRLPRPRPRPMWWPRP,-0.0122
16,RRIRFRPPRLPRPRPRPHLFPRP,-0.238
17,RRIRFRPPRLPRPRPRPVMEPRP,0.352
18,RRIRMRPPRLPRPRPRPPQAPRP,1.06
19,RRIRQRPPRLPRPRPRPCSKPRP,-0.18
20,RRIRKRPPRLPRPRPRPVSTPRP,-0.102
21,RRIRGRPPRLPRPRPRPYHNPRP,-0.267
22,RRIRFRPPRLPRPRPRPGIAPRP,-0.15
23,RRIRWRPPRLPRPRPRPECDPRP,1.93
24,RRIRGRPPRLPRPRPRPNFQPRP,0.122
25,RRIRHRPPRLPRPRPRPNWAPRP,-0.0735
